Measurements: the nanobody polyreactivity screen of Harvey et al. (2022)

experiment: yeast display, Sf9 membrane polyspecificity reagent, FACS + sequencing; frameworks hold sequencing errors
Outline: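 In a synthetic yeast display library (Saccharomyces cerevisiae BJ5465), nanobody expression was induced with galactose for 36–48 hours. FACS gates were set low and high (top ~1%) using anti-HA fluorescence for expression and streptavidin fluorescence for binding of the Sf9 membrane reagent. Each polyreactivity label is drawn from the gate of origin.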

| Sequence | polyreactivity (PSR sort gate) |
| --- | --- |
| QVQLVESGGGLVHAGCSLRLSCSASGRISGYAMGWYRQAPGKERELVAAISKSAARTYYADSVKGRFTISRDNAKNTVYLQMNSLKAEDTAVYYCAADKPYRYDYWGQGTQVTVSS | high polyreactivity |
| QFQLVESGGGLVQAGGSLRLSCAASGIIFGRYTKGWYRDAPGKETELVAAITSSGITYYADSVKGRFTISRDNAKNTVYLQMNSLKPEDTAVYYCAADVGYWGRSRGYPSDDYDYWGQGTQVTVSS | low polyreactivity |
| QVQLVESGGGLVQAGGSLRLSCAASGGIFKYNAMGWYRQAPGKERELVAAIDTSGGSTYYADSVKGRFTISRDKAKNTVYLQMNSLKPDDTAVYYCAAELCLAQYYYWGQGTQVTVTS | low polyreactivity |
| QVQLVESGGGLVQAGGSLRLSCAASGFIFPYNEMGWYRPAPGKERELGAAITSGSNTYYADSVKGRFTISRDNAKNTVYLQLNSLKPEDTAFYYCAARRRIYRSMGYWGQGSQVTVSS | low polyreactivity |
| QVQLVESGGGLVQAGGSLRLSCAASGFIITQSAMGWYRQAPGTERELVAAISGNGGRTYYADSVKGRFTISRDNAKNTVYLQMNSLKPEDTAVYYCAVTRPGRRYPFCYDYWGQGTQVTVSS | low polyreactivity |
| QVQLVESGGGVVQAGGSLRLSCAASGRIFLKYTMGWYRQAPGKARELVAAISRGGSTYYADSVKGRFTISRDNAKNTVYLQMNSLKPEDTAVYYCAATSYRRTGYNYWGQGTQVTVSS | high polyreactivity |
| QVQLVESGGGLVQAGGSLRLSCAASGIIFVLYDMGWYRPAPGKERELVAAIDKSGGSTYYADSVKGRFTISRDNAKNTVYLQMNSLKPEDTAVYYCNARVVWRNPSYLKSSYDYWGQGTQVTVSS | low polyreactivity |
| QVQLVESGGGLVQAGGSLRLSCAASGRIFYQNVMGWYRQAPGKERELVAAITRRDVTTYADSVKGRFTISRDNAKNTVYLQMNSLKPEDTAVYYCNAVYYNWIGFDYWGQGTQVTVSS | low polyreactivity |
| QVQLVESGGGLVQAGGSLRLSCAASGSTFKAYAMGWYRQAPGKERELVAAITKSGGRTYYADSVKGRFTLSRDNAKNTVYLQMNSLKPEDTAVYYCNAAAYVWKSKQRLYVITYDYWGQGTQVTVSS | high polyreactivity |
| QVQLVESGGGLVQAGVSLRLSCAASGRTFYVNAMGWYRQAPGKERELVAAISYSDGITYYADSVKARFTISRDNAKNTVYLQMNSLKPEDTAVYYCAAEGYHYYSQRAGVDYWGQGTQVTVSS | high polyreactivity |
| QVQLVESGGGLVQAGGSLRLSCAASGNIFYAYDMGWYRQAPGKERELVAAITNGDSTDYADSVKGRFTISRDNAKNTVYLQMNSLKPEDTAVYYCNADYLPEPWALGGSQYDYWGQGTQVTVSS | low polyreactivity |
| QVQLKERGGGLVQAGGSLRLSCAAIGPISRRSTMGWYRQAPGKERELVTDITRGTNTNYADSVKGRFTISRDNAKNTEYLQMNSLKPEDTAVYYCEAYGVLKPSRGDAVFHRYWGQGTQVTVSS | low polyreactivity |
| QVQLVESGGGLVQAGCSLLLSCAASGRLFSLNAMGWYRQAPGKERELVAAITRSAASTHYADSEKGRFTISRDNAKNTVYLQMNSLKPEDTAVYYCAARFWYDYRHYDYWGQGTEVTVSS | low polyreactivity |
| QVQLVESGGGLVQAGGSLRLSCAASGITFYRNAMGWYRQAPGKERELVAAISWSGGRTYYADSVKGRFTISRDNAKNTVYLQMNSLKPEDTAVYYCNKYTHYYDYDYWGQGTQVTVSS | high polyreactivity |
| QVQLVESGGGLVQAGGSLRLSCAASGRTFWKYAMGWYRQAPGKERELVAAITASGARTYYADSVKGRFTISRDNAKNTVYLQLNSLKPEDTAVYYCNAGSVSDRQMDYWGQGTQVTVSS | low polyreactivity |
| QVQLVESGGGLVQAGGSLRLSCAPSGRTFSENAMGWYRQAPGKERELVAAISGSGGRTYYADSVMGRFTISRDNAKNSVFLQMNSLKPEVTAVYYCAKVTRYGSTYDYWGQGTQVTVSS | high polyreactivity |
| QVQLVESGGGLVQAGGSLRLSCAASGSTFYGYAMGWYRQAPGKERELVAAITRSGGSTYYADSVKGRFTISRDNAKNTVYLQMNSLKPEDTAVYYCAAEFRYSRVYGYNYWGQGSQVTVSS | high polyreactivity |
